Laboratory results reported in patent US20240059766A1.
pKd: −log10 of the molar value.

Columns and labels:
[1] = target: Tau217-234 phospho-peptide (pT217/pT220/pT231) (human); experiment: BLI
[2] = target: Tau225-240 phospho-peptide (pT231) (human); experiment: BLI
[3] = target: Peptide 5 (tPeptide 5) (pT212/pS214/pT217) (human); experiment: one point ELISA
[4] = target: Tau204-222 phospho-peptide (pS214) (human); experiment: one point ELISA
[5] = target: Tau204-222 phospho-peptide (pS214/pT217) (human); experiment: one point ELISA
[6] = target: Tau204-222 phospho-peptide (pT212) (human); experiment: one point ELISA
[7] = target: Tau204-222 phospho-peptide (pT212/pS214) (human); experiment: one point ELISA
[8] = target: Tau204-222 phospho-peptide (pT212/pS214/pT217) (human); experiment: one point ELISA
[9] = target: Tau204-222 phospho-peptide (pT212/pT217) (human); experiment: one point ELISA
[10] = target: Tau204-222 phospho-peptide (pT217) (human); experiment: one point ELISA
wtTau C2 (human) = experiment: one point ELISA
[11] = target: SCBio-4PEG-Peptide (Tau191-214) pS199-old (human); experiment: one point ELISA
Sequence of SCBio-4PEG-Peptide (Tau191-214) pS199-old (human) (peptide, as listed by the source): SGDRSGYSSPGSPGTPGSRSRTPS

[12] = target: Tau191-214 phospho-peptide (pS199) (human); experiment: one point ELISA
Sequence of Tau191-214 phospho-peptide (pS199) (human) (peptide, as listed by the source): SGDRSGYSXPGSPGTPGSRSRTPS

[13] = target: Tau191-214 phospho-peptide (pS199/pS202) (human); experiment: one point ELISA
[14] = target: Tau191-214 phospho-peptide (pS199/pS202/pT205) (human); experiment: one point ELISA
[15] = target: Tau191-214 phospho-peptide (pS199/pT205) (human); experiment: one point ELISA
[16] = target: Tau191-214 phospho-peptide (pS202) (human); experiment: one point ELISA
Sequence of Tau191-214 phospho-peptide (pS202) (human) (peptide, as listed by the source): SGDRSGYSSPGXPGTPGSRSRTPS

[17] = target: Tau191-214 phospho-peptide (pS202/pT205) (human); experiment: one point ELISA
[18] = target: Tau191-214 phospho-peptide (pT205) (human); experiment: one point ELISA
Sequence of Tau191-214 phospho-peptide (pT205) (human) (peptide, as listed by the source): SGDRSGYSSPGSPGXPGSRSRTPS

[19] = target: AT8 peptide (amino acids 195-215 of tau) (human); experiment: BLI (Octet), peptide on streptavidin tip
Sequence of AT8 peptide (amino acids 195-215 of tau) (human) (peptide, as listed by the source): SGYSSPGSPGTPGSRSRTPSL

| Substance | pKd [1] | pKd [2] | OD450 [3] | OD450 [4] | OD450 [5] | OD450 [6] | OD450 [7] | OD450 [8] | OD450 [9] | OD450 [10] | OD450 (wtTau C2 (human)) | OD450 [11] | OD450 [12] | OD450 [13] | OD450 [14] | OD450 [15] | OD450 [16] | OD450 [17] | OD450 [18] | pKd [19] |
| --- | --- | --- | --- | --- | --- | --- | --- | --- | --- | --- | --- | --- | --- | --- | --- | --- | --- | --- | --- | --- |
| AT180 (antibody) | 11.30 | 11.22 | – | – | – | – | – | – | – | – | – | – | – | – | – | – | – | – | – | – |
| PT3-hIgG1 (antibody) | – | – | 2.81 OD450 nm | 3.14 OD450 nm | 3.13 OD450 nm | 3.16 OD450 nm | 3.14 OD450 nm | 3.17 OD450 nm | 3.16 OD450 nm | 3.13 OD450 nm | 1.2 OD450 nm | – | – | – | – | – | – | – | – | – |
| anti-tau antibody AT8 (ThermoFisher, Waltham, MA) | – | – | – | – | – | – | – | – | – | – | – | 0.056 OD450 nm | 0.056 OD450 nm | 2.39 OD450 nm | 3.07 OD450 nm | 0.139 OD450 nm | 0.058 OD450 nm | 2.94 OD450 nm | 0.065 OD450 nm | 9.51 |
| anti-tau antibody AT100 (ThermoFisher, Waltham, MA) | – | – | – | 0.065 OD450 nm | 0.067 OD450 nm | 0.069 OD450 nm | 0.071 OD450 nm | 0.187 OD450 nm | 0.069 OD450 nm | 0.068 OD450 nm | – | – | – | – | – | – | – | – | – | – |
| hIgG1 isotype control (antibody) | – | – | 0.141 OD450 nm | 0.061 OD450 nm | 0.059 OD450 nm | 0.06 OD450 nm | 0.059 OD450 nm | 0.053 OD450 nm | 0.057 OD450 nm | 0.083 OD450 nm | 0.124 OD450 nm | 0.06 OD450 nm | 0.058 OD450 nm | 0.062 OD450 nm | 0.245 OD450 nm | 0.09 OD450 nm | 0.055 OD450 nm | 0.249 OD450 nm | 0.054 OD450 nm | – |
